Results on six molecules are retold here after patent US20110142840A1 (ONCOMED PHARMACEUTICALS, published 2011).

Usually Kd stands for the equilibrium constant for the complex coming apart. One may read the IC50 as the point on the concentration scale where inhibition reaches its midpoint.

For assay [1], the target named is T1, recombinant human MET extracellular domain (MET ECD) (human, UniProt P08581 25-932).
T1 construct: extracellular domain; also called full-length MET-ECD molecule
As to the kind of experiment: BIAcore 2000; MET ECD amine-coupled on CM5 chip, antibody injected at 100-1 nM, global fit. Background: In SPR one partner is held on a chip, and binding of the other changes the refractive index at the surface.
Protocol: (§1) Fab and IgG affinities were determined using a BIAcore 2000 instrument. Briefly, MET ECD was immobilized on a CM5 chip using standard amine based chemistry (NHS/EDC). For each Fab and IgG, different concentrations (100-1 nM) were injected over the MET ECD surface and kinetic data were collected over time. The data was fit using the simultaneous global fit equation to yield affinity constants (KD) for each Fab and IgG.

Assay [2] concerns the target T2, human MET Receptor on cells (human, UniProt P08581 25-1390).
T2 construct: whole, on cells; Endogenous receptor on cell lines; also called MET-receptor on GTL-16 cells; MET on A549 lung tumor cells
As to the kind of experiment: FACS on GTL-16 cells; AF647-R28 fixed at 360 nM, against AF647-R28 without R13.

For assay [3], the target named is T2, human MET Receptor on cells. As to the kind of experiment: cell-based or functional assay.
Assay [4] addresses T3, recombinant human MET PSI-IPT domains (human, UniProt P08581 516-932, limits assumed).
T3 construct: domain: PSI-IPT; also called PSI-IST (as printed once)
Nature of the assay: plate binding assay, 384-well plates coated with recombinant domains.

The target of assay [5] is T4, recombinant human MET SEMA domain (human, UniProt P08581 27-515).
T4 construct: domain: SEMA; also called SEMA domain of MET-ECD
The assay is described as above.

The target in assay [6] is T5, recombinant human MET/Fc chimeric protein (R&D Systems) (human, UniProt P08581 25-932).
T5 construct: extracellular domain; Bought reagent; also called MET Receptor extracellular domain; not shown: Fc part (detected with anti-human Fc) and any linker of the bought chimera
Nature of the assay: HGF/MET blocking ELISA, experiment of Example 3; unit from the legend of FIG. 3; FIG. 3A experiment, antibody alone. (In general: In an ELISA, binding on a coated surface is turned into a signal by an enzyme label.)

For assay [7], the target named is T5, recombinant human MET/Fc chimeric …. As to the kind of experiment: HGF/MET blocking ELISA (Dm=IC50): antibody preincubated with MET/Fc, added to HGF-coated wells; unit from the legend of FIG. 2; FIG. 2A, B experiment.
Protocol: (§2) After washing the wells once with 0.2% PBS/T, they were blocked with 5% PBS/milk for one hour. […] Washing was repeated as described above. Fifty microliters of substrate were added per well until a yellow color developed. The reaction was then stopped with 50 μL of 1 M H₂SO₄ and the absorbance at 450 nm determined with a standard plate reader.
Assay [8] has the same target. As to the kind of experiment: HGF/MET blocking ELISA: antibody preincubated with MET/Fc, added to HGF-coated wells; unit from the legend of FIG. 1.
Protocol: as §2
For assay [9], the target named is T1, recombinant human MET extracellular …. As to the kind of experiment: BIAcore 2000; MET ECD amine-coupled on CM5 chip, antibody injected at 100-1 nM, global fit; Dimer, not IgG.
Protocol: as §1

T5 sequence (P08581 25-932, change not shown): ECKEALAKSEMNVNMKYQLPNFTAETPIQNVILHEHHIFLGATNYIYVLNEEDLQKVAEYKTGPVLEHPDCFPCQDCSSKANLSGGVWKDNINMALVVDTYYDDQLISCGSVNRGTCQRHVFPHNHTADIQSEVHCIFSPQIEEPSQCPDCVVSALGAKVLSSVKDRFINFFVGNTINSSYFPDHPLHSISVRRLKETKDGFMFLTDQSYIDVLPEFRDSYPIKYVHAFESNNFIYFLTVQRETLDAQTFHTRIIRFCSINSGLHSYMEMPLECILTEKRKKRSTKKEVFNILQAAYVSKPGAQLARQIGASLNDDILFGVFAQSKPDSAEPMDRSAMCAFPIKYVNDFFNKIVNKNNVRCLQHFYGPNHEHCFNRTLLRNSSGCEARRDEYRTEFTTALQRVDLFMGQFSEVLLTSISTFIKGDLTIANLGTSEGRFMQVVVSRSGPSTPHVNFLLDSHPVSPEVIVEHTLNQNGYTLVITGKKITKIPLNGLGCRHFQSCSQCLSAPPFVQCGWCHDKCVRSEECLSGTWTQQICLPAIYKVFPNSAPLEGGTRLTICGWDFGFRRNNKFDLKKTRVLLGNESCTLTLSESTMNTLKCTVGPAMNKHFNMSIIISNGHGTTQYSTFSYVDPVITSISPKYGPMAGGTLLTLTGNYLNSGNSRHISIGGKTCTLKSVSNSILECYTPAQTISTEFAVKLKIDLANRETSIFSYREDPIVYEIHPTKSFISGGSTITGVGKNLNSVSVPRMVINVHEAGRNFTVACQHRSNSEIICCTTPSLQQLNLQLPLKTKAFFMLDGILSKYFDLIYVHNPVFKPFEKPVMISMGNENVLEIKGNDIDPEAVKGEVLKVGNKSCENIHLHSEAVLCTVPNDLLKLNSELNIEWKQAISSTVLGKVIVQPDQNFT
T1 sequence (P08581 25-932): as the sequence (P08581 25-932, change not shown) above
T2 sequence (P08581 25-1390): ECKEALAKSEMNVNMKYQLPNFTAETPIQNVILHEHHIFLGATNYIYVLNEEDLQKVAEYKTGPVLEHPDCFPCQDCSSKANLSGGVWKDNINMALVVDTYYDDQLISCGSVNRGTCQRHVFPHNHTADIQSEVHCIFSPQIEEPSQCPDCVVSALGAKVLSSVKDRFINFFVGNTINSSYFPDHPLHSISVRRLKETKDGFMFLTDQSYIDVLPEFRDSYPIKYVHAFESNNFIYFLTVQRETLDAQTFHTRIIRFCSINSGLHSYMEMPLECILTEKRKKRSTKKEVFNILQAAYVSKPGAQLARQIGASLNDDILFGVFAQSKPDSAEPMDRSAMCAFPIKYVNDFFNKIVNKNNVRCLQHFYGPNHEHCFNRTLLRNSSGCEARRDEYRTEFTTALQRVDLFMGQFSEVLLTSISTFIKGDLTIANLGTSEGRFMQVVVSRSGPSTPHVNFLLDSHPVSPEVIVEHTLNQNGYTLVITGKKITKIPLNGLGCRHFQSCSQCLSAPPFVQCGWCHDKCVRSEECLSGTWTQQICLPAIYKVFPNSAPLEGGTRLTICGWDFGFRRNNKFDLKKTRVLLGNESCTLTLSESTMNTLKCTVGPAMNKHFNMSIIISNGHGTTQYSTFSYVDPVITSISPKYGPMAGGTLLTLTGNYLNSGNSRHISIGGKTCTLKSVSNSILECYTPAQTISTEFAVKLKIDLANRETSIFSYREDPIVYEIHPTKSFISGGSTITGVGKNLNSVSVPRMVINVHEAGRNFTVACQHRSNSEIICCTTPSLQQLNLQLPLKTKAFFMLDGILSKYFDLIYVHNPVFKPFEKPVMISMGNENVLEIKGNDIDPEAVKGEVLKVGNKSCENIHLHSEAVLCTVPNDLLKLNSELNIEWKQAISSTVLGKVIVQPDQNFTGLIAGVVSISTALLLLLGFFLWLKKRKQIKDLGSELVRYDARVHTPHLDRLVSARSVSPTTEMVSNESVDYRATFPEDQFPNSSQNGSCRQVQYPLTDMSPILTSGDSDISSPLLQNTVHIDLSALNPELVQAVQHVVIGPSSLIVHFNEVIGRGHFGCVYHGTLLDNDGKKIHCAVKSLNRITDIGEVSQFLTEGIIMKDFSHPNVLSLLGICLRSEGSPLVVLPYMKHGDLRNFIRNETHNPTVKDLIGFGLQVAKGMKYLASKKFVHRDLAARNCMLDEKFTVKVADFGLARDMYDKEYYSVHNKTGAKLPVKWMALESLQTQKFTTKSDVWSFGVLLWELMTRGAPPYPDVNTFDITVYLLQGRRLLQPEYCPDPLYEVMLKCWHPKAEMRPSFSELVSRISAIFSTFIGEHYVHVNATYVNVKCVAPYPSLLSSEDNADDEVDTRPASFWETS
T3 sequence (P08581 516-932 limits assumed): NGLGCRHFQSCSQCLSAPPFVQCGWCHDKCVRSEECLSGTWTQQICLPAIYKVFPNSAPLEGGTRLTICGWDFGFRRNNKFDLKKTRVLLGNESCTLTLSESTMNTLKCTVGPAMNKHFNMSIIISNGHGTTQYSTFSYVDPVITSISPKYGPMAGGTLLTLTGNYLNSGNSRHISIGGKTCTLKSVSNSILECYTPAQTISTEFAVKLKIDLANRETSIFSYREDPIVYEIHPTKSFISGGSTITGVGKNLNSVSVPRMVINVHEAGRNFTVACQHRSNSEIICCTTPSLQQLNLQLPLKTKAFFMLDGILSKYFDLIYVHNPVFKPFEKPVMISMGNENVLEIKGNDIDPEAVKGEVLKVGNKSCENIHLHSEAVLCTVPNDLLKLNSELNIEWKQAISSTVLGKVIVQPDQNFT
T4 sequence (P08581 27-515): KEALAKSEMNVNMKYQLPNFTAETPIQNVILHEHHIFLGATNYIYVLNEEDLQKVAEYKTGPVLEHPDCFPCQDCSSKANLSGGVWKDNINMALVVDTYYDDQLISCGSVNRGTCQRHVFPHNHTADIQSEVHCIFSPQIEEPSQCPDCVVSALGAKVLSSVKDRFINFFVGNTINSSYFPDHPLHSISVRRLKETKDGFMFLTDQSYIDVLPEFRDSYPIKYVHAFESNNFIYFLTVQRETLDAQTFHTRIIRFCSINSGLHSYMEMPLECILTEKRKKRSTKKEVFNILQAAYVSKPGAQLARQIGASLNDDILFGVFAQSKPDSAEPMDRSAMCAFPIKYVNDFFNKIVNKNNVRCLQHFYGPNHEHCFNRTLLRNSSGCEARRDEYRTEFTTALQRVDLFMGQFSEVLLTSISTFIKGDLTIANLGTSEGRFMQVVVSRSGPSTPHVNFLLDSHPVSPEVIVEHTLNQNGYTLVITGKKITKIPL

B1: 28-MET human IgG1 antibody (antibody, V domains shown)
VH: QVQLQESGPGLVKPGETLSLTCTVSGGSISGYYWSWIRQAPGKGLEWIGEIYYAGSTLYNPSLKGRVTISVDTSKNQFSLKLSSVTAEDTAVYYCARHYGLDWFGDTGMDVWGQGTLVTVSS
VL: DIELTQPPSVSVAPGQSITISCSGDNLGDKYVHWYQQKPGQAPVLVIYDDNERPSGIPERFSGSNSGNTATLTISGTQAEDEADYYCSAYGSHSGTVFGGGTKLTVLG
notes: Fab variable regions combined with human constant regions to give a full human IgG1; ATCC deposit PTA-9149; also called 28-MET IgG; MET-28 IgG
For the molecule B1, the Kd in assay [1] came out at 47.9 nM. In assay [2], the “fold increase of ΔMFI with 20 nM unlabeled R13” value came out at 2.6 fold. In [3], the “EC50 of antibody-dependent cellular cytotoxicity (ADCC) on GTL-16 cells” value amounted to 3770 nM. For the same molecule, the binding result in [4] and in [5] was “no binding” throughout.

B2: 19-MET (divalent dimer of two 28-MET Fabs linked via a helix-loop-helix motif) (other)
VH: B1 VH
VL: B1 VL
notes: also called 19d; dimeric Fab-dHLX of Fab 28
In the case of B2, in [1], the Kd worked out at 8.7 nM. For the same molecule, the IC50 worked out at 106 nM in assay [6] and 44.3 nM in [7].

B3: 28-MET monovalent Fab (Fab, V domains shown)
VH: B1 VH
VL: B1 VL
notes: Monovalent human Fab from the Morphosys HuCAL GOLD Fab library; the Fab constant parts are not; also called Fab-28; R28
On to B3, for which the dissociation constant Kd in assay [1] came out at 49 nM. Moreover, the IC50 in [8] came to 36.1 nM.

B4: 13-MET human IgG1 antibody (antibody, V domains shown)
VH: QVQLKESGPALVKPTQTLTLTCTFSGFSLSTSGMVVSWIRQPPGKALEWLAFISWDDDKYYSTSLKTRLTISKDTSKNQVVLTMTNMDPVDTATYYCAREPGRYGGYYFDYWGQGTLVTVSS
VL: DIQMTQSPSSLSASVGDRVTITCRASQTISHYLAWYQQKPGKAPKLLIYAASILQSGVPSRFSGSGSGTDFTLTISSLQPEDFAVYYCQQYSGFPVTFGQGTKVEIKR
notes: Fab variable regions combined with human constant regions to give a full human IgG1; ATCC deposit PTA-9148; also called 13-MET IgG; MET-13 IgG
B4: the Kd in assay [1] came out at 0.9 nM. In assay [3], the “EC50 of antibody-dependent cellular cytotoxicity (ADCC) on GTL-16 cells” value turned out to be 479 nM. In addition, the binding result in [4] was “no binding”.

B5: 13-MET monovalent Fab (Fab, V domains shown)
VH: B4 VH
VL: B4 VL
notes: Monovalent human Fab from the Morphosys HuCAL GOLD Fab library; the Fab constant parts are not; also called Fab-13; R13
Regarding B5, in assay [8], the IC50 came to 12.4 nM.

B6: 9-MET (divalent dimer of two 13-MET Fabs linked via a helix-loop-helix motif) (other)
VH: B4 VH
VL: DIQMTQSPSSLSASVGDRVTITCRASQTISHYLAWYQQKPGKAPKLLIYAASILQSGVPSRFSGSGSGTDFTLTISSLQPEDFAVYYCQQYSGFPVTFGQGTKVEIKRT
notes: also called 9d; dimeric Fab-dHLX of Fab 13
On to B6, for which the values for the IC50 in assay [6] and in assay [7] were 8.88 nM and 5.08 nM, respectively. Besides, in [9], the Kd came to 0.56 nM.
